# Target: T1, CD3ε homodimer protein (human, UniProt P07766 23-126, limits assumed, sulfo-tag or biotin label in some ECL assays)
# T1 construct: also called human CD3ε homodimer protein; CD3 (CD3ε)
# Test: SPR, CD3ε homodimer on chip;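 further: biacore SPR with antibody variants flowed as analyte over amine-coupled CD3ε homodimer on a CM chip, bound amount of each single-residue H chain variant over that of parent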
# T1 sequence (P07766 23-126 limits assumed): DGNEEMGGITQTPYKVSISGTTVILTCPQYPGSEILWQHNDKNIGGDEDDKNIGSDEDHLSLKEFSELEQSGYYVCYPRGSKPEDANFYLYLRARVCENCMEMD
row,Binder,ratio of amounts bound vs CE115HA000
1,"CE115HA000 A56N (antibody, name in Kabat numbering, V domains shown) VH: QVQLVESGGGVVQPGRSLRLSCAASGFTFSNAWMHWVRQAPGKGLEWVAQIKAKSNNYNTYYAESVKGRFTISRDDSKNSLYLQMNSLKTEDTAVYYCRYVHYGAYYGVDAWGQGTTVTVSS VL: DIVMTQSPLSLPVTPGEPASISCRSSQSLVHSNRNTYLHWYQQKPGQAPRLLIYKVSNRFSGVPDRFSGSGSGTDFTLKISRVEAEDVGVYYCGQGTQVPYTFGQGTKLEIK",0.87
2,"CE115HA000 A60D (antibody, name in Kabat numbering, V domains shown) VH: QVQLVESGGGVVQPGRSLRLSCAASGFTFSNAWMHWVRQAPGKGLEWVAQIKAKSNNYATYYDESVKGRFTISRDDSKNSLYLQMNSLKTEDTAVYYCRYVHYGAYYGVDAWGQGTTVTVSS VL: DIVMTQSPLSLPVTPGEPASISCRSSQSLVHSNRNTYLHWYQQKPGQAPRLLIYKVSNRFSGVPDRFSGSGSGTDFTLKISRVEAEDVGVYYCGQGTQVPYTFGQGTKLEIK",0.99
3,"CE115HA000 D73E (antibody, name in Kabat numbering, V domains shown) VH: QVQLVESGGGVVQPGRSLRLSCAASGFTFSNAWMHWVRQAPGKGLEWVAQIKAKSNNYATYYAESVKGRFTISRDESKNSLYLQMNSLKTEDTAVYYCRYVHYGAYYGVDAWGQGTTVTVSS VL: DIVMTQSPLSLPVTPGEPASISCRSSQSLVHSNRNTYLHWYQQKPGQAPRLLIYKVSNRFSGVPDRFSGSGSGTDFTLKISRVEAEDVGVYYCGQGTQVPYTFGQGTKLEIK",0.73
4,"CE115HA000 D73R (antibody, name in Kabat numbering, V domains shown) VH: QVQLVESGGGVVQPGRSLRLSCAASGFTFSNAWMHWVRQAPGKGLEWVAQIKAKSNNYATYYAESVKGRFTISRDRSKNSLYLQMNSLKTEDTAVYYCRYVHYGAYYGVDAWGQGTTVTVSS VL: DIVMTQSPLSLPVTPGEPASISCRSSQSLVHSNRNTYLHWYQQKPGQAPRLLIYKVSNRFSGVPDRFSGSGSGTDFTLKISRVEAEDVGVYYCGQGTQVPYTFGQGTKLEIK",1.04
5,"CE115HA000 A60E (antibody, name in Kabat numbering, V domains shown) VH: QVQLVESGGGVVQPGRSLRLSCAASGFTFSNAWMHWVRQAPGKGLEWVAQIKAKSNNYATYYEESVKGRFTISRDDSKNSLYLQMNSLKTEDTAVYYCRYVHYGAYYGVDAWGQGTTVTVSS VL: DIVMTQSPLSLPVTPGEPASISCRSSQSLVHSNRNTYLHWYQQKPGQAPRLLIYKVSNRFSGVPDRFSGSGSGTDFTLKISRVEAEDVGVYYCGQGTQVPYTFGQGTKLEIK",0.94
6,"CE115HA000 D72V (antibody, name in Kabat numbering, V domains shown) VH: QVQLVESGGGVVQPGRSLRLSCAASGFTFSNAWMHWVRQAPGKGLEWVAQIKAKSNNYATYYAESVKGRFTISRVDSKNSLYLQMNSLKTEDTAVYYCRYVHYGAYYGVDAWGQGTTVTVSS VL: DIVMTQSPLSLPVTPGEPASISCRSSQSLVHSNRNTYLHWYQQKPGQAPRLLIYKVSNRFSGVPDRFSGSGSGTDFTLKISRVEAEDVGVYYCGQGTQVPYTFGQGTKLEIK",1.43
7,"CE115HA000 D72E (antibody, name in Kabat numbering, V domains shown) VH: QVQLVESGGGVVQPGRSLRLSCAASGFTFSNAWMHWVRQAPGKGLEWVAQIKAKSNNYATYYAESVKGRFTISREDSKNSLYLQMNSLKTEDTAVYYCRYVHYGAYYGVDAWGQGTTVTVSS VL: DIVMTQSPLSLPVTPGEPASISCRSSQSLVHSNRNTYLHWYQQKPGQAPRLLIYKVSNRFSGVPDRFSGSGSGTDFTLKISRVEAEDVGVYYCGQGTQVPYTFGQGTKLEIK",1.05
8,"CE115HA000 D73T (antibody, name in Kabat numbering, V domains shown) VH: QVQLVESGGGVVQPGRSLRLSCAASGFTFSNAWMHWVRQAPGKGLEWVAQIKAKSNNYATYYAESVKGRFTISRDTSKNSLYLQMNSLKTEDTAVYYCRYVHYGAYYGVDAWGQGTTVTVSS VL: DIVMTQSPLSLPVTPGEPASISCRSSQSLVHSNRNTYLHWYQQKPGQAPRLLIYKVSNRFSGVPDRFSGSGSGTDFTLKISRVEAEDVGVYYCGQGTQVPYTFGQGTKLEIK",0.63
9,"CE115HA000 A99S (antibody, name in Kabat numbering, V domains shown) VH: QVQLVESGGGVVQPGRSLRLSCAASGFTFSNAWMHWVRQAPGKGLEWVAQIKAKSNNYATYYAESVKGRFTISRDDSKNSLYLQMNSLKTEDTAVYYCRYVHYGSYYGVDAWGQGTTVTVSS VL: DIVMTQSPLSLPVTPGEPASISCRSSQSLVHSNRNTYLHWYQQKPGQAPRLLIYKVSNRFSGVPDRFSGSGSGTDFTLKISRVEAEDVGVYYCGQGTQVPYTFGQGTKLEIK",0.82
10,"CE115HA000 A56Q (antibody, name in Kabat numbering, V domains shown) VH: QVQLVESGGGVVQPGRSLRLSCAASGFTFSNAWMHWVRQAPGKGLEWVAQIKAKSNNYQTYYAESVKGRFTISRDDSKNSLYLQMNSLKTEDTAVYYCRYVHYGAYYGVDAWGQGTTVTVSS VL: DIVMTQSPLSLPVTPGEPASISCRSSQSLVHSNRNTYLHWYQQKPGQAPRLLIYKVSNRFSGVPDRFSGSGSGTDFTLKISRVEAEDVGVYYCGQGTQVPYTFGQGTKLEIK",0.76
11,"CE115HA000 A99D (antibody, name in Kabat numbering, V domains shown) VH: QVQLVESGGGVVQPGRSLRLSCAASGFTFSNAWMHWVRQAPGKGLEWVAQIKAKSNNYATYYAESVKGRFTISRDDSKNSLYLQMNSLKTEDTAVYYCRYVHYGDYYGVDAWGQGTTVTVSS VL: DIVMTQSPLSLPVTPGEPASISCRSSQSLVHSNRNTYLHWYQQKPGQAPRLLIYKVSNRFSGVPDRFSGSGSGTDFTLKISRVEAEDVGVYYCGQGTQVPYTFGQGTKLEIK",0.28
12,"CE115HA000 A99F (antibody, name in Kabat numbering, V domains shown) VH: QVQLVESGGGVVQPGRSLRLSCAASGFTFSNAWMHWVRQAPGKGLEWVAQIKAKSNNYATYYAESVKGRFTISRDDSKNSLYLQMNSLKTEDTAVYYCRYVHYGFYYGVDAWGQGTTVTVSS VL: DIVMTQSPLSLPVTPGEPASISCRSSQSLVHSNRNTYLHWYQQKPGQAPRLLIYKVSNRFSGVPDRFSGSGSGTDFTLKISRVEAEDVGVYYCGQGTQVPYTFGQGTKLEIK",1.43
13,"CE115HA000 D73G (antibody, name in Kabat numbering, V domains shown) VH: QVQLVESGGGVVQPGRSLRLSCAASGFTFSNAWMHWVRQAPGKGLEWVAQIKAKSNNYATYYAESVKGRFTISRDGSKNSLYLQMNSLKTEDTAVYYCRYVHYGAYYGVDAWGQGTTVTVSS VL: DIVMTQSPLSLPVTPGEPASISCRSSQSLVHSNRNTYLHWYQQKPGQAPRLLIYKVSNRFSGVPDRFSGSGSGTDFTLKISRVEAEDVGVYYCGQGTQVPYTFGQGTKLEIK",0.43
14,"CE115HA000 A99I (antibody, name in Kabat numbering, V domains shown) VH: QVQLVESGGGVVQPGRSLRLSCAASGFTFSNAWMHWVRQAPGKGLEWVAQIKAKSNNYATYYAESVKGRFTISRDDSKNSLYLQMNSLKTEDTAVYYCRYVHYGIYYGVDAWGQGTTVTVSS VL: DIVMTQSPLSLPVTPGEPASISCRSSQSLVHSNRNTYLHWYQQKPGQAPRLLIYKVSNRFSGVPDRFSGSGSGTDFTLKISRVEAEDVGVYYCGQGTQVPYTFGQGTKLEIK",1.13
15,"CE115HA000 A56Y (antibody, name in Kabat numbering, V domains shown) VH: QVQLVESGGGVVQPGRSLRLSCAASGFTFSNAWMHWVRQAPGKGLEWVAQIKAKSNNYYTYYAESVKGRFTISRDDSKNSLYLQMNSLKTEDTAVYYCRYVHYGAYYGVDAWGQGTTVTVSS VL: DIVMTQSPLSLPVTPGEPASISCRSSQSLVHSNRNTYLHWYQQKPGQAPRLLIYKVSNRFSGVPDRFSGSGSGTDFTLKISRVEAEDVGVYYCGQGTQVPYTFGQGTKLEIK",0.66
16,"CE115HA000 A102Y (antibody, name in Kabat numbering, V domains shown) VH: QVQLVESGGGVVQPGRSLRLSCAASGFTFSNAWMHWVRQAPGKGLEWVAQIKAKSNNYATYYAESVKGRFTISRDDSKNSLYLQMNSLKTEDTAVYYCRYVHYGAYYGVDYWGQGTTVTVSS VL: DIVMTQSPLSLPVTPGEPASISCRSSQSLVHSNRNTYLHWYQQKPGQAPRLLIYKVSNRFSGVPDRFSGSGSGTDFTLKISRVEAEDVGVYYCGQGTQVPYTFGQGTKLEIK",0.91
17,"CE115HA000 D101A (antibody, name in Kabat numbering, V domains shown) VH: QVQLVESGGGVVQPGRSLRLSCAASGFTFSNAWMHWVRQAPGKGLEWVAQIKAKSNNYATYYAESVKGRFTISRDDSKNSLYLQMNSLKTEDTAVYYCRYVHYGAYYGVAAWGQGTTVTVSS VL: DIVMTQSPLSLPVTPGEPASISCRSSQSLVHSNRNTYLHWYQQKPGQAPRLLIYKVSNRFSGVPDRFSGSGSGTDFTLKISRVEAEDVGVYYCGQGTQVPYTFGQGTKLEIK",1.26
18,"CE115HA000 A99H (antibody, name in Kabat numbering, V domains shown) VH: QVQLVESGGGVVQPGRSLRLSCAASGFTFSNAWMHWVRQAPGKGLEWVAQIKAKSNNYATYYAESVKGRFTISRDDSKNSLYLQMNSLKTEDTAVYYCRYVHYGHYYGVDAWGQGTTVTVSS VL: DIVMTQSPLSLPVTPGEPASISCRSSQSLVHSNRNTYLHWYQQKPGQAPRLLIYKVSNRFSGVPDRFSGSGSGTDFTLKISRVEAEDVGVYYCGQGTQVPYTFGQGTKLEIK",1.48
19,"CE115HA000 A99T (antibody, name in Kabat numbering, V domains shown) VH: QVQLVESGGGVVQPGRSLRLSCAASGFTFSNAWMHWVRQAPGKGLEWVAQIKAKSNNYATYYAESVKGRFTISRDDSKNSLYLQMNSLKTEDTAVYYCRYVHYGTYYGVDAWGQGTTVTVSS VL: DIVMTQSPLSLPVTPGEPASISCRSSQSLVHSNRNTYLHWYQQKPGQAPRLLIYKVSNRFSGVPDRFSGSGSGTDFTLKISRVEAEDVGVYYCGQGTQVPYTFGQGTKLEIK",0.84
20,"CE115HA000 D101G (antibody, name in Kabat numbering, V domains shown) VH: QVQLVESGGGVVQPGRSLRLSCAASGFTFSNAWMHWVRQAPGKGLEWVAQIKAKSNNYATYYAESVKGRFTISRDDSKNSLYLQMNSLKTEDTAVYYCRYVHYGAYYGVGAWGQGTTVTVSS VL: DIVMTQSPLSLPVTPGEPASISCRSSQSLVHSNRNTYLHWYQQKPGQAPRLLIYKVSNRFSGVPDRFSGSGSGTDFTLKISRVEAEDVGVYYCGQGTQVPYTFGQGTKLEIK",1.38
21,"CE115HA000 A102V (antibody, name in Kabat numbering, V domains shown) VH: QVQLVESGGGVVQPGRSLRLSCAASGFTFSNAWMHWVRQAPGKGLEWVAQIKAKSNNYATYYAESVKGRFTISRDDSKNSLYLQMNSLKTEDTAVYYCRYVHYGAYYGVDVWGQGTTVTVSS VL: DIVMTQSPLSLPVTPGEPASISCRSSQSLVHSNRNTYLHWYQQKPGQAPRLLIYKVSNRFSGVPDRFSGSGSGTDFTLKISRVEAEDVGVYYCGQGTQVPYTFGQGTKLEIK",1.43
